Data: patent US20070219116A1 (TROPHOGEN, published 2007)

Assays:
rat LH receptor = target: T1, rat LH receptor (rat, UniProt P16235 27-700, limits assumed); assay: not described; data not shown
T1 construct: the form used in the assay is not described; also called rat luteinizing hormone receptor

human LH receptor = target: T2, human LH receptor (human, UniProt P22888 27-699, limits assumed); assay: not described; data not shown
T2 construct: the form used in the assay is not described; also called human luteinizing hormone (receptor)

human FSH receptor = target: T3, human FSH receptor (human, UniProt P23945 18-695); assay: cell-based or functional assay
T3 sequence: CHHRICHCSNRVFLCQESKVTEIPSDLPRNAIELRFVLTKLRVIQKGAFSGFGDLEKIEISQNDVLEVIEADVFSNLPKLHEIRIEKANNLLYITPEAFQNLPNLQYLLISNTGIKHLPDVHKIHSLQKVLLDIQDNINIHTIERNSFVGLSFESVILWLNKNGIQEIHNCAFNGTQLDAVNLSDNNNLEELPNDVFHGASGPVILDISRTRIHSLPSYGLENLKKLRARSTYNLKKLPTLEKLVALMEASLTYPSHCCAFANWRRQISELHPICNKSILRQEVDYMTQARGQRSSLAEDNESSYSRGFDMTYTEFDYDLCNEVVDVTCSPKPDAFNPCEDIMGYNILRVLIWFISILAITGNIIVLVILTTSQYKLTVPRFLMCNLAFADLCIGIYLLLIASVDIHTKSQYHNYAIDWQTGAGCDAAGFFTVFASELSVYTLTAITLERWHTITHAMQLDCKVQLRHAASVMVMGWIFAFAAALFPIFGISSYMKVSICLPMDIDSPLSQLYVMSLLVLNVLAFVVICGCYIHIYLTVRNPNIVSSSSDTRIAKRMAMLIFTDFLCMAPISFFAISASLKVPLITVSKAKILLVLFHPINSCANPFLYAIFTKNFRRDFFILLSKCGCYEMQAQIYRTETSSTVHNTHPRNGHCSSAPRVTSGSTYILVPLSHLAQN

T1 sequence (P16235 27-700 limits assumed): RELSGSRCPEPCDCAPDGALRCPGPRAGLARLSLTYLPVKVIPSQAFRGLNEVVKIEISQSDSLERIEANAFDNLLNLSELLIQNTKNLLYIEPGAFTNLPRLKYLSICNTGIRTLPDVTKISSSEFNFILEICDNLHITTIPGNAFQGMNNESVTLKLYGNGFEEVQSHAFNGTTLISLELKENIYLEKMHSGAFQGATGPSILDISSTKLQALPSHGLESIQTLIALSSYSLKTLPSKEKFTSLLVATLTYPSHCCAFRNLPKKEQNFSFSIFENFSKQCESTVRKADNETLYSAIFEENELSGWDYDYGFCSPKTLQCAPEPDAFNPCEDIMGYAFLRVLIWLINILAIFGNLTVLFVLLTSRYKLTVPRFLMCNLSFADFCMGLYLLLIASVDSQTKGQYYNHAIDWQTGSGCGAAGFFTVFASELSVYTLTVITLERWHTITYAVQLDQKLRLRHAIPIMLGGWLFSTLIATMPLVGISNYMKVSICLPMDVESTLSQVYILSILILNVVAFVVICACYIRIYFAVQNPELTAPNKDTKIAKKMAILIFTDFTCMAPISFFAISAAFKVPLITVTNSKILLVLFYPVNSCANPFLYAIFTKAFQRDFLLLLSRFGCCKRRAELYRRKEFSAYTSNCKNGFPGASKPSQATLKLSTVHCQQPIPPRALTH
T2 sequence (P22888 27-699 R124G/N312S limits assumed): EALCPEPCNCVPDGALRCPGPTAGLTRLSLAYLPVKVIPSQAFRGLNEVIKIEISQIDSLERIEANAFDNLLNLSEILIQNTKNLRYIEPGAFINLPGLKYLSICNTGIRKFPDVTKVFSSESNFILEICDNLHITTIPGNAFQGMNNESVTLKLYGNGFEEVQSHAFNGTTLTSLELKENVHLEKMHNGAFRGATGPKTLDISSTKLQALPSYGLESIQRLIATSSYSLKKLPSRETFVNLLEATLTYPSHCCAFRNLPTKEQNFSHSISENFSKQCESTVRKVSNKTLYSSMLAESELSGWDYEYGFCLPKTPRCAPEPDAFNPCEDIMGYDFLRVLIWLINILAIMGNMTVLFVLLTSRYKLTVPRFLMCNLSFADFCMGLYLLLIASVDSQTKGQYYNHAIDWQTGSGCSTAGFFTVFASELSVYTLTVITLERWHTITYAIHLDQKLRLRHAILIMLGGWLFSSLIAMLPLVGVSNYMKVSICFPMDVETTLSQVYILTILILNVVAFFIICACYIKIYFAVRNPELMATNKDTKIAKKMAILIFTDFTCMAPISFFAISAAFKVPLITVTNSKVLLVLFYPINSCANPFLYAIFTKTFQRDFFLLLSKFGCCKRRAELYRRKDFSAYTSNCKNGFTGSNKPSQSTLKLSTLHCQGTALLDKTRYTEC

B1: FSH analog TR-4402: alpha(E14R + Q20R + G73R) + betaE4R (ligand)
chain 1: not shown
chain 2: NSCRLTNITIAIEKEECRFCISINTTWCAGYCYTRDLVYKDPARPKIQKTCTFKELVYETVRVPGCAHHADSLYTYPVATQCHCGKCDSDSTDCTVRGLGPSYCSFGEMKE
- binding result (rat LH receptor): binds
- binding result (human LH receptor): no binding
- potency, total cAMP production in CHO-FSHR cells, compared to Follistim (wild type FSH) (human FSH receptor): 30 fold
- potency, total cAMP production in KGN-FSHR cells, compared to wild type FSH (human FSH receptor): 30 fold
